According to the supplement of paper PMC9170038:

Tested on: MS2 coat protein
Experiment: apparent KD of MS2 coat protein; higher = weaker reporter binding
Details: Eterna round: R107
Summary of the method: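 With or without constant ligand, designed RNA switches in 100 mM Tris-HCl pH 7.5, 80 mM KCl and 4 mM MgCl2 were titrated with SNAP-549-labelled MS2 coat protein. Concentrations went up in twofold steps from 0.7 or 1.5 nM to 3 µM. The switches had been transcribed on-chip from Illumina sequencing clusters, and apparent KD is the per-design median of normalised cluster binding-curve fits.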

[1] = input ligand: theophylline 20 uM
[2] = input ligand: theophylline 2 mM
[3] = input ligand: tryptophan 2.4 mM

Row | Sequence | apparent KD of MS2 coat protein (input ligand: arginine 13.2 mM) [µM] | apparent KD of MS2 coat protein [1] [µM] | apparent KD of MS2 coat protein [2] [µM] | apparent KD of MS2 coat protein (input ligand: none) [µM] | apparent KD of MS2 coat protein [3] [µM]
1 | GUUCGUCCUACGGCCGCCACUAAAACACAUGAGGAUCACCCAUGUUAGUAUCCUGGCUGGUGUGAUAGGACCGGGUAGGGAAGAA [theeternabot_exclusion_MS2_Trp_B_14] | 0.011 | 0.0136 | 0.0108 | – | –
2 | GUUGGUUUGCGAAGGAGCGGGUAUGUUGUCUACUGGAUCCUAACAUGAGGAUCACCCAUGUCCCAGGUAGGUCGCGCGGGCUUUG [12.aB] | 0.0341 | 0.0563 | 0.0522 | 0.0283 | 0.0382
3 | GUUGUAUACUCGGCCGCCACUGAGAGAGUCAUGUAAACAUGAGGAUCACCCAUGUAAUAUAUAUACAGGACCGGGAGUAUGGUAA [4.F] | 0.0121 | 0.0162 | 0.0154 | – | –
4 | UAAAACAUGAGGAUCACCCAUGUAAAUGAUACCAGAGUGAUGAUCCUCCCUUGGCAGCAUAACGCUGAUUGGAAACAAUCAGCGA [Mat - Same State Theophlline A - Mod of Eli - D23] | 0.0288 | 0.144 | – | – | 0.0758
5 | UAAAUAAUCUGGGUGUAGGUAAUAACAGAUACCAGCCAGAUAACUGGCCCUUGGCAGCUGAUAACAUGAGGAUCACCCAUGUAAA [Mat - Same State Theophlline A - Mod of Eli - D20] | 0.047 | 0.114 | – | – | 0.0556
6 | UAACAUGAGGAUCACCCAUGUUUAGAUGAACGAGGACCGGUACGGCCGCCACUCGAUAAGUGGAAGAAACGAGGGAUUGUAUGAU [Same State Trp A GF2] | 0.0141 | 0.0151 | 0.0188 | 0.0127 | 0.0183
7 | UAACAUGAGGAUCACCCAUGUUUGAAGGAACGAGGACCGGUACGGCCGCCACUCGACGAGUGGAUGAGAAGUGGGAUAGUGUGCU [Same State Trp A GF7] | 0.0153 | 0.0182 | 0.0143 | – | –
8 | UAAGUUAGGGCGGCCGCCACUCGAACAUGAGGAUCACCCAUGUAAAUUAAUUAAAGGACAUGAAUGAGGACCGGGCCAAGUUAGA [Same State - Tryptophan B / A] | 0.0139 | 0.0202 | 0.0152 | – | –
9 | UAAUAAAUAAAUCCAAGGUGAAGGUCAGAUACCAGCCAGAUAACUGGCCCUUGGCAGCUGAAUAAUCAUGAGGAUCACCCAUGAA [TheoAS 25 #OpenEnded #MS2Late #AlternativeMS2] | 0.0172 | 0.0247 | 0.0639 | 0.0228 | 0.0195
10 | UACAAACAUGAGGAUCACCCAUGUAGUGAUACCAGCAUAACAGAUUGCCCUUGGCAGCACCGGUUUGUACUCAAACGAAGUACGG [theeternabot_sameState_MS2_Theo_A_36] | 0.056 | 0.0862 | – | – | 0.0529
11 | UACAUGAGGAUCACCCAUGUAUAGAGGGAUACCAGUGUCAGUGAGCACCCUUGGCAGCCCGCGAACAAUGGGUGCGCUAAAUAGU [#19 Exclusion-TheophyllineA] | 0.0232 | 0.0753 | – | – | 0.0324
12 | UACAUGAGGAUCACCCAUGUAUGAAUGGAUACCAGAUAAAAUAAGGUCCCUUGGCAGCUAGUGAAUCGAGGGUGGGUAUCAUGAU [#13 Exclusion-TheophyllineA] | 0.0106 | 0.0128 | – | – | 0.0102
13 | UACAUGAGGAUCACCCAUGUGGCGGAUGAUACCAGUAUGGUGACAUACCCUUGGCAGCAUGCUAUGAGGAUCACCCAUGUGUGCA [EThA NP+V+V2 #11 DOUBLE] | 0.0563 | 0.0849 | – | – | 0.0707
14 | UACCGAGAGGGAAGGAGCGCGAUAACAUAACAUGAGGAUCACCCAUGUAAGAAAUUAAUCAUGCAGGUAGGUCGCCCAAGCGGAU [Same State Arginine B GF 2] | 0.0167 | 0.0215 | 0.0158 | 0.0154 | 0.0147
15 | UACUUGCUGACGGCCGCCACUAGAACAUGAGGAUCACCCAUGUAAGUGGUUGGUUCAUGGGUGACUAGGACCGGGUCAGCAAGAU [(Trp1)-(Ms2)-(T)'-(M)'-(Trp2)_Design19] | 0.0269 | 0.0479 | 0.0377 | – | –
16 | UAGACGGCCGGAAGGAGCGGUACAUGAGGAUCACCCAUGUACCUCUGGGCAUCCGUAGUGUGCCAGGUAGGUCGCCGGUUGCGGG [Tebecela] | 0.0126 | 0.0125 | 0.0114 | 0.0116 | 0.0137
17 | UAGGCACGAGACAUGAGGAUCACCCAUGUUCGAGGACCGGUACGGCCGCCACUCGGUGGACUCAUGGUAAAGCCGGUGAGCCAAU [AK 1.2 SS Trypt (A)] | 0.0167 | 0.0281 | 0.0158 | 0.0171 | 0.0516
18 | UAGUAACAUGAGGAUCACCCAUGUCCGGAUACCAGACAUAUACCAGUCCCUUGGCAGCCGCCAGUUAAAAUCUAACACAAAAGUU [theeternabot_sameState_MS2_Theo_A_34] | 0.0388 | 0.055 | – | – | 0.0344
19 | UAUAAAAUAACAGAUACCAGCGUGUUAUAAAACAUGAGGAUCACCCAUGUAGUGAUCAAGCGCCCUUGGCAGCUGGUAUUUUAUA [7.B] | 0.0972 | 0.15 | – | – | 0.142

Row | Sequence | apparent KD of MS2 coat protein (input ligand: arginine 13.2 mM) [µM] | apparent KD of MS2 coat protein [1] [µM] | apparent KD of MS2 coat protein [2] [µM] | apparent KD of MS2 coat protein (input ligand: none) [µM] | apparent KD of MS2 coat protein [3] [µM]
20 | UAUACAUGAGGAUCACCCAUGUACCAUGAAGGAGCGCAGAAAUCUGCAGGUAGGUCGCAUGGGUUAUGACCUCGGCAUAAUAACG [Enreusus] | 0.0405 | 0.0469 | 0.0397 | 0.0278 | 0.0262
21 | UAUAUAGAUGGACGUCAUAUAGAUGCAGAAGGAGCGUAGGAAACUACAGGUAGGUCGCUGAGGUACAUGAGGAUCACCCAUGUAG [SSArg A #19 Slice of Pi] | 0.0343 | 0.038 | 0.0379 | 0.0265 | 0.0209
22 | UAUAUAUAAAUUGAUACCAGCGAGAAAACAUGAGGAUCACCCAUGUUCGCCCAUGUUAAGCGCCCUUGGCAGCAAUAUUAUUAUU [AstrosExyTheB#3] | 0.0188 | 0.0334 | – | – | 0.0338
23 | UAUCCACAUGAGGAUCACCCAUGUAGGGAAGGAGCGGUGAUUUCACCAGGUAGGUCGCCUUGCUGAGGGUAGCCGGUGGAAUCGU [Exclusion - Arginine A (Freestyle 32)] | 0.0244 | 0.0224 | 0.00915 | 0.0197 | 0.0109
24 | UAUCCACAUGAGGAUCACCCAUGUAUGGAAGGAGCGGUGAAUGAACCAGGUAGGUCGCCAUGGUGAGGAUCAUCUAUGGAUUCGU [Exclusion - Arginine A (Freestyle 9)] | 0.0303 | 0.0824 | 0.0722 | 0.0565 | 0.0867
25 | UAUCGAAACUGAAGGAGCGAGAUGACAAACAUGAGGAUCACCCAUGUUAUGGGUUGUUAAUCUCAGGUAGGUCGCAGUGGUAGCA [Same State Arginine B GF 17] | 0.0881 | 0.142 | 0.245 | 0.141 | 0.156
26 | UAUCGAGGUACAUGAGGAUCACCCAUGUAUCGAGGACCGGUACGGCCGCCACUCGAUAAUGGCGGAUCGUUAGUCCUCUUCGAUA [Tryp A Ex 4b] | – | 0.014 | 0.0127 | – | –
27 | UAUCGGAACUGAAGGAGCGAGAUGACAAACAUGAGGAUCACCCAUGUUAUGGGUUGUUAAUCUCAGGUAGGUCGCAGUGGUAGCA [#27 Same State - Arginine B] | 0.0527 | 0.138 | 0.194 | 0.151 | 0.151
28 | UAUCGGCACUGAAGGAGCGAGUUGACAAACAUGAGGAUCACCCAUGUUAUGGGUUGUUAAUCUCAGGUAGGUCGCAGUUGUCGCA [Same State Arginine B GF 19] | 0.221 | 0.403 | 0.576 | 0.334 | 0.5
29 | UAUCUACAUAUAUAGGUUAUUCGAUUAUUUCGAGGACCGGUACGGCCGCCACUCGUUAACAUAUACAUGAGGAUCACCCAUGUUA [JR_Nu_SSTryptoA_Sub023] | 0.0156 | 0.019 | 0.0175 | – | –
30 | UAUGCACAUGAGGAUCACCCAUGUAUGGAAGGAGCGGUGAAUGAACCAGGUAGGUCGCCAUGGUGAGGAUCAUCUAUGUAUUCGU [Exclusion - Arginine A (Freestyle 8)] | 0.0491 | 0.101 | 0.117 | 0.081 | 0.0717
31 | UAUGUGAUAGUCGUACUCUCACACUGAGAAGGAGCGCGAUAGUUCGCAGGUAGGUCGCUCAGUUAUACAUGAGGAUCACCCAUGU [Isrice] | 0.0253 | 0.0329 | 0.0324 | 0.0326 | 0.0264
32 | UAUUUGGUGCGCGAGCGUUGGAUAAUUGAUACCAGUGAAGAAGAGCGCCCUUGGCAGCGAAUCCUAACAUGAGGAUCACCCAUGU [5.S] | 0.0382 | 0.0632 | – | – | 0.0414
33 | UCACAUGAGGAUCACCCAUGUGUCAGAGAAGGAGCGGCCGCAAGGCCAGGUAGGUCGCUCAGGUAGCGUGAGGAUCACCCGUGUG [#1 Exclusion - Arginine A Attempt #10 (Inspired by cyborg)] | 0.0236 | 0.213 | 0.141 | 0.118 | 0.117
34 | UCACAUGAGGAUCACCCAUGUGUCAGAGAAGGAGCGGCCGCAAGGCCAGGUAGGUCGCUCGGGUAGCGUGAGGAUCACCCGUGUG [#1 Exclusion - Arginine A Attempt #11 (Inspired by cyborg)] | 0.0318 | 0.175 | 0.0775 | 0.0658 | 0.0451
35 | UCACUCUGGGUGAAUUCCGGAGAUGUGGAAGGAGCGGACGAAAGUCCAGGUAGGUCGCCAUCGGACAUGAGGAUCACCCAUGUAC [Same State - Arginine A (Freestyle 23)] | 0.0718 | 0.098 | 0.131 | 0.089 | 0.0685
36 | UCAUGAGUUUCGGAUACCAGUGAUGUCGAUACAUGAGGAUCACCCAUGUUAGAGGAUGUACACCCUUGGCAGCCGGGUGUGGCGG [ooimullin] | 0.0337 | 0.102 | 0.102 | 0.143 | 0.113
37 | UCCGCGGAGACGGCCGCCACUGAGUGAGAAGUCGUGCUCUAACUACAUGAGGAUCACCCAUGUCCCAGGACCGGGUCGAAGUGUU [theeternabot_sameState_MS2_Trp_B_36] | 0.0974 | 0.235 | 0.208 | – | –
